Assay results taken from patent US20170029530A1 (AbbVie / Abbott, published 2017).

How the values were obtained:
Test in all cases: SPR, BIAcore 2000, antibody captured with anti-human capture kit
hDPEP1-His = target: T1, hDPEP1-His (human, UniProt P16444 17-385, limits assumed)
T1 construct: Neither the origin nor the limits of this protein are described; not shown: histidine tag
T1 sequence (looked up): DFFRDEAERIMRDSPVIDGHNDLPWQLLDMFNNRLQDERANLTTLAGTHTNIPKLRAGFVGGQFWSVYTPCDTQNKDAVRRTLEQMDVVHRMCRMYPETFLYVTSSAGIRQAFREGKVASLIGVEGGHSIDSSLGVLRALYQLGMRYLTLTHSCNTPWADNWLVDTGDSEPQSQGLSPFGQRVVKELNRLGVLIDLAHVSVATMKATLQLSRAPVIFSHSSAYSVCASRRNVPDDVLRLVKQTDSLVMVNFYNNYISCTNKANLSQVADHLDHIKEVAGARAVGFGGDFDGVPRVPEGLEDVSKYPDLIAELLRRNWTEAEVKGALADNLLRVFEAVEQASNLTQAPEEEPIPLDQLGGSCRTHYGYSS

[1] = target: T2, hDPEP2 ECD with histidine tag (human, UniProt Q9H4A9 33-463)
T2 construct: also called hDPEP2-His; not shown: histidine tag
T2 sequence (Q9H4A9 33-463): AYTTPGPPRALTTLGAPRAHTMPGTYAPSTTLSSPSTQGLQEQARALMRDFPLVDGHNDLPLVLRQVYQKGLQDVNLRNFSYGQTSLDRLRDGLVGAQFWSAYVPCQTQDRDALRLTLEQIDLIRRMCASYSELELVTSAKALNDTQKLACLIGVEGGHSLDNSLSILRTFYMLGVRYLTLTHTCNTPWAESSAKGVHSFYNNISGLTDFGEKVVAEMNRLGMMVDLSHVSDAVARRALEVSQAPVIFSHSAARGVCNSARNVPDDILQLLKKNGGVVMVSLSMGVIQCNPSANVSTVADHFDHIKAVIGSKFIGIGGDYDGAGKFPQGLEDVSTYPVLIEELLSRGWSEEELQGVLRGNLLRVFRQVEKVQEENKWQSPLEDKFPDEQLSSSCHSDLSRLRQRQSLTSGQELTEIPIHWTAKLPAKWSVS

[2] = target: T3, rat DPEP3 ECD with histidine tag (rat, UniProt Q5U2X4 36-459, limits assumed)
T3 construct: also called rDPEP3-His; ratDPEP3-His; not shown: histidine tag
T3 sequence: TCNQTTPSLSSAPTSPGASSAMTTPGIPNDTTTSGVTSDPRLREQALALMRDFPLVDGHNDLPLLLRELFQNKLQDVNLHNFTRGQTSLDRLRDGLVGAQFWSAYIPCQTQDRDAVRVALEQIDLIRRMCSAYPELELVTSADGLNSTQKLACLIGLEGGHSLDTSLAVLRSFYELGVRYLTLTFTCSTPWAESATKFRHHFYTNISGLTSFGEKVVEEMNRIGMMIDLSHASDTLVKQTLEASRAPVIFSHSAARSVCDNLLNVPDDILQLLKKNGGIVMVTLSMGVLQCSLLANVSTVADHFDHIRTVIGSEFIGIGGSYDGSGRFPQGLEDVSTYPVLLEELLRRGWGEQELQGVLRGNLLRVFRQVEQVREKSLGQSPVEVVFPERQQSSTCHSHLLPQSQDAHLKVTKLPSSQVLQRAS

binding result (hDPEP1-His): no binding | binding result [1]: binds | binding result [2]: no binding
B1: hSC34.14 humanized anti-DPEP3 antibody (antibody, human IgG1, kappa, V domains shown)
VH: QVQLVQSGAEVKKPGASVKVSCKASGYTFTDYYMHWVRQAPGQRLEWMGRVNPKKGGTTYNQKFEGRVTITRDTSASTAYMELSSLRSEDTAVYYCAMGIYYSYDASFDYWGQGTTVTVSS
VL: DIQMTQSPSSLSASVGDRVTITCRTSEHIYSYLAWYQQKPGKAPKLLIYNAKTLAEGVPSRFSGSGSGTDFTLTISSLQPEDFATYYCQHHYDTPYTFGQGTKLEIKR
notes: Human IgG1/kappa
